Measurements: article PMC7905918, “20E-mediated regulation of BmKr-h1 by BmKRP promotes oocyte maturation”

T1: BmKRP (Bombyx mori, UniProt A0A8R1WHU4 1-518)
T1 sequence: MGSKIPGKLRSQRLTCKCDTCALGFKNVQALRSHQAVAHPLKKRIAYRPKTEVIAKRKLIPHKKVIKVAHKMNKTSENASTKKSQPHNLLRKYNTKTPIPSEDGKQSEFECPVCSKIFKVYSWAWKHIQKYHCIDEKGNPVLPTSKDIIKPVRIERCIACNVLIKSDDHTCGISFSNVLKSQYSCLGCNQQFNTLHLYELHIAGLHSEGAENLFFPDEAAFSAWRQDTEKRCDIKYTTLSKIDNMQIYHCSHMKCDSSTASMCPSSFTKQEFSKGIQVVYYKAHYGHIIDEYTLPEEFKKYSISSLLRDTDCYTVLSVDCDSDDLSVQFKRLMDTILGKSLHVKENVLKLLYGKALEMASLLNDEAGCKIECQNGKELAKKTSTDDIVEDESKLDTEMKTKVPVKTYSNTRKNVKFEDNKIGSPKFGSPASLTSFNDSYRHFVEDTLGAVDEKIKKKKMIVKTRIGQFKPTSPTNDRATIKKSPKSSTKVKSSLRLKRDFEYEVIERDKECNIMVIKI


How the values were obtained:
Conditions in all cases: protein: ivt; label: 5' biotin; blunt
[1] = target: T1, BmKRP; test: EMSA; competed by 50-fold unlabeled probe; EMSA: 1x binding buffer (LightShift kit), 2.5% glycerol, 0.05% NP-40, 50 mM KCl, 5 mM MgCl2, 4 mM EDTA, 1 ug poly dI-dC, 20 fmol probe, room temperature 20 min; pull-down: 10 mM HEPES pH 7.6, 100 mM K-glutamate, 80 mM KCl, 10 mM Mg acetate, 4 C
[2] = target: T1, BmKRP; test: EMSA; EMSA: 1x binding buffer (LightShift kit), 2.5% glycerol, 0.05% NP-40, 50 mM KCl, 5 mM MgCl2, 4 mM EDTA, 1 ug poly dI-dC, 20 fmol probe, room temperature 20 min; pull-down: 10 mM HEPES pH 7.6, 100 mM K-glutamate, 80 mM KCl, 10 mM Mg acetate, 4 C
[3] = target: T1, BmKRP; test: EMSA; Discussion calls it weaker (citing Fig. 3f); EMSA: 1x binding buffer (LightShift kit), 2.5% glycerol, 0.05% NP-40, 50 mM KCl, 5 mM MgCl2, 4 mM EDTA, 1 ug poly dI-dC, 20 fmol probe, room temperature 20 min; pull-down: 10 mM HEPES pH 7.6, 100 mM K-glutamate, 80 mM KCl, 10 mM Mg acetate, 4 C

Binder | binding result [2] | binding result [3] | also measured
BmKr-h1 20E CRE -248~-217 WT probe (dsDNA) DNA 1: TTATTAAAACATCCGAAAACGCAATAATCATT DNA 2: AATGATTATTGCGTTTTCGGATGTTTTAATAA |  |  | binding result [1]: binds
-248~-217 mutant probe 5 (both flanks mutated) (dsDNA) DNA 1: GGCGGCCCACATCCGAAAACGACCGCCGACGG DNA 2: CCGTCGGCGGTCGTTTTCGGATGTGGGCCGCC | no binding |  | 
-248~-217 mutant probe 6 (left flank mutated) (dsDNA) DNA 1: GGCGGCCCACATCCGAAAACGCAATAATCATT DNA 2: AATGATTATTGCGTTTTCGGATGTGGGCCGCC |  | binds | 
-248~-217 mutant probe 7 (right flank mutated) (dsDNA) DNA 1: TTATTAAAACATCCGAAAACGACCGCCGACGG DNA 2: CCGTCGGCGGTCGTTTTCGGATGTTTTAATAA |  | binds | 
-248~-217 mutant probe 4 (central … region mutated) (dsDNA) DNA 1: TTATTAACCACGAATCCCCATAAATAATCATT DNA 2: AATGATTATTTATGGGGATTCGTGGTTAATAA | binds |  | 
